B1: IgG1-004-H5L2 (antibody)
heavy: not shown
light: AQVLTQSPSPLSASVGDRVTITCQASQSVYNSQNLAWYQQKPGKAPKLLIYEASKLASGVPSRFKGSGSGTEFTLTISSLQPDDFATYYCQGEFSCISADCTAFGGGTKVEIKRTVAAPSVFIFPPSDEQLKSGTASVVCLLNNFYPREAKVQWKVDNALQSGNSQESVTEQDSKDSTYSLSSTLTLSKADYEKHKVYACEVTHQGLSSPVTKSFNRGEC
B2: IgG1-004-H5L2-E430G (antibody)
heavy: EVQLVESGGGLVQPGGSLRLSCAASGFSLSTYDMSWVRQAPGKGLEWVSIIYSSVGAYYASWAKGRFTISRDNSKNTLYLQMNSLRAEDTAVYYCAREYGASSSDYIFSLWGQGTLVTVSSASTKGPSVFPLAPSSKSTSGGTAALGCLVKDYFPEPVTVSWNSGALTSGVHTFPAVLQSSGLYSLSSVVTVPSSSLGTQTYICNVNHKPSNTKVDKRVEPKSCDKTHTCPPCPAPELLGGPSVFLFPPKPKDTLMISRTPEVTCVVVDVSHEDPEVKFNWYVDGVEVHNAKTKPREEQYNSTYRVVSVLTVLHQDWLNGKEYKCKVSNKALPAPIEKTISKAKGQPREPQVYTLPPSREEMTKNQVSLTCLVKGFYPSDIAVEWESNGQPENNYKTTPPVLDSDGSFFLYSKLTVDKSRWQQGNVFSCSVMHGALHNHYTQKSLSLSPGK
light: B1 light
notes: IgG1,kappa with E430G (EU numbering)
B3: IgG1-G28.1 (antibody)
heavy: not shown
light: DIQMTQSPASLSASVGETVTITCRTSENVYSYLAWYQQKQGKSPQLLVSFAKTLAEGVPSRFSGSGSGTQFSLKISSLQPEDSGSYFCQHHSDNPWTFGGGTELEIKRTVAAPSVFIFPPSDEQLKSGTASVVCLLNNFYPREAKVQWKVDNALQSGNSQESVTEQDSKDSTYSLSSTLTLSKADYEKHKVYACEVTHQGLSSPVTKSFNRGEC
notes: IgG1,kappa
B4: IgG1-G28.1-E430G (antibody)
heavy: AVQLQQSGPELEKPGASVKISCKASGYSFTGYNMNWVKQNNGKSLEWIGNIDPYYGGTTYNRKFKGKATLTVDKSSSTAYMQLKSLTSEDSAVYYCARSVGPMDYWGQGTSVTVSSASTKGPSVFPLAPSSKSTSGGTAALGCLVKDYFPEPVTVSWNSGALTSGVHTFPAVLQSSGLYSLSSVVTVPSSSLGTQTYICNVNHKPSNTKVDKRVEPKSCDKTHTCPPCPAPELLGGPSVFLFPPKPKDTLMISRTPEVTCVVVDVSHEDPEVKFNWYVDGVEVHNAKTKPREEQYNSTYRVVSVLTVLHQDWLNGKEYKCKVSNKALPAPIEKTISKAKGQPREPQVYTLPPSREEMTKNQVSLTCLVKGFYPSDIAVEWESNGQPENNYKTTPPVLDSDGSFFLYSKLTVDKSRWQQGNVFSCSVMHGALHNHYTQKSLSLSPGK
light: B3 light
notes: IgG1,kappa with E430G
B5: IgG1-010-H5L2 (antibody)
heavy: not shown
light: AYDMTQSPSTLSASVGDRVTITCQASQNIIDYLAWYQQKPGKAPKLLIHKASTLASGVPSRFKGSGSGTEFTLTISSLQPDDFATYYCQQGYSNSNIDNTFGGGTKVEIKRTVAAPSVFIFPPSDEQLKSGTASVVCLLNNFYPREAKVQWKVDNALQSGNSQESVTEQDSKDSTYSLSSTLTLSKADYEKHKVYACEVTHQGLSSPVTKSFNRGEC
notes: Humanized, IgG1,kappa
B6: IgG1-010-H5L2-E430G (antibody)
heavy: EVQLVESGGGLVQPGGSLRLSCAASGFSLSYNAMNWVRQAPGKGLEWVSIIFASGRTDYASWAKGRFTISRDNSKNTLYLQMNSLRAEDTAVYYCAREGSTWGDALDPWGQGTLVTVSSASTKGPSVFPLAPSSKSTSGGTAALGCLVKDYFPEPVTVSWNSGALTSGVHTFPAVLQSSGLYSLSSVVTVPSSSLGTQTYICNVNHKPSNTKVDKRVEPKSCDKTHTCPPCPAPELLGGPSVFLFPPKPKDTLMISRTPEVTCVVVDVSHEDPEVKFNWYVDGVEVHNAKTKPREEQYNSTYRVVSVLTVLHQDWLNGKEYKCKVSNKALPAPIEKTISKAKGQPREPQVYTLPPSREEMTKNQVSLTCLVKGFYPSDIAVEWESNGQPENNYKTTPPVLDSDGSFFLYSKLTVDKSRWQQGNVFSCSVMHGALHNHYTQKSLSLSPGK
light: B5 light
notes: IgG1,kappa with E430G
B7: IgG1-016-H5L2-E430G (antibody)
heavy: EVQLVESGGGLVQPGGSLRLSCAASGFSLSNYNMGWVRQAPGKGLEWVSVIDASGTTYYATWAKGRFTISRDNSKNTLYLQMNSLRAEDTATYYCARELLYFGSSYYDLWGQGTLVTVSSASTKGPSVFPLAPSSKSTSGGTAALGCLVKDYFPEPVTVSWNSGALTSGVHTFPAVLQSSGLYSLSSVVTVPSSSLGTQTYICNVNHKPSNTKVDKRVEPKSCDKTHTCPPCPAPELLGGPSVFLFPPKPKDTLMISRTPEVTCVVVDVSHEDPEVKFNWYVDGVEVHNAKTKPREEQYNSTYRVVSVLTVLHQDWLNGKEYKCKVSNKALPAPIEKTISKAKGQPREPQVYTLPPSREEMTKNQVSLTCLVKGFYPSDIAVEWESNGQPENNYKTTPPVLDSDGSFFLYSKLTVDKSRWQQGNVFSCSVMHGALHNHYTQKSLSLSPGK
light: DVVMTQSPSTLSASVGDRVTITCQASQNIDSNLAWYQQKPGKAPKFLIYYASNLPFGVPSRFKGSGSGTEFTLTISSLQPDDFATYYCQCADVGSTYVAAFGGGTKVEIKRTVAAPSVFIFPPSDEQLKSGTASVVCLLNNFYPREAKVQWKVDNALQSGNSQESVTEQDSKDSTYSLSSTLTLSKADYEKHKVYACEVTHQGLSSPVTKSFNRGEC
notes: IgG1,kappa with E430G
B8: IgG1-016-H5L2-F405L-E430G (antibody)
heavy: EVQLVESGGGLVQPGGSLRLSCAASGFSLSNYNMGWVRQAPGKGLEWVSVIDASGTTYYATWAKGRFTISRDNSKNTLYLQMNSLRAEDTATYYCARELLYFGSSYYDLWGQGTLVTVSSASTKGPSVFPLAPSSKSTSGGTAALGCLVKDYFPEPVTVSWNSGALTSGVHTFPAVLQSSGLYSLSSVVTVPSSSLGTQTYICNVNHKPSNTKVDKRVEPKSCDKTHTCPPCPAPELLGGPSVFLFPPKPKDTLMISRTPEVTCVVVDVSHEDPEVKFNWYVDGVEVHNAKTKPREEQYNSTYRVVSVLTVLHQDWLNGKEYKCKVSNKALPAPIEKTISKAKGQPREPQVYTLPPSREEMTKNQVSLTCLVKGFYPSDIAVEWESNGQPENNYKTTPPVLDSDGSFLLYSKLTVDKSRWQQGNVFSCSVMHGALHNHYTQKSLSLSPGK
light: B7 light
notes: IgG1,kappa with F405L and E430G
B9: IgG1-016-H5L2 (antibody)
heavy: not shown
light: B7 light
notes: Humanized, IgG1,kappa
B10: IgG1-016-H5L2-LC90S-F405L-E430G (antibody, V domains shown)
VH: EVQLVESGGGLVQPGGSLRLSCAASGFSLSNYNMGWVRQAPGKGLEWVSVIDASGTTYYATWAKGRFTISRDNSKNTLYLQMNSLRAEDTATYYCARELLYFGSSYYDLWGQGTLVTVSS
VL: DVVMTQSPSTLSASVGDRVTITCQASQNIDSNLAWYQQKPGKAPKFLIYYASNLPFGVPSRFKGSGSGTEFTLTISSLQPDDFATYYCQSADVGSTYVAAFGGGTKVEIKR
notes: light chain carries C90S; also called D1; IgG1-3009-016-H5L2-F405L-E430G-LC90S
B11: IgG1-37.3 (antibody)
heavy: not shown
light: DIQMTQSPASLSVSVGETVTITCRASENIRSNLAWYQQKQGKSPQLLVNVATNLADGVPSRFSGSGSGTQYSLKINSLQSEDFGTYYCQHYWGTTWTFGGGTKLEIKRTVAAPSVFIFPPSDEQLKSGTASVVCLLNNFYPREAKVQWKVDNALQSGNSQESVTEQDSKDSTYSLSSTLTLSKADYEKHKVYACEVTHQGLSSPVTKSFNRGEC
notes: IgG1,kappa
B12: IgG1-37.3-E430G (antibody)
heavy: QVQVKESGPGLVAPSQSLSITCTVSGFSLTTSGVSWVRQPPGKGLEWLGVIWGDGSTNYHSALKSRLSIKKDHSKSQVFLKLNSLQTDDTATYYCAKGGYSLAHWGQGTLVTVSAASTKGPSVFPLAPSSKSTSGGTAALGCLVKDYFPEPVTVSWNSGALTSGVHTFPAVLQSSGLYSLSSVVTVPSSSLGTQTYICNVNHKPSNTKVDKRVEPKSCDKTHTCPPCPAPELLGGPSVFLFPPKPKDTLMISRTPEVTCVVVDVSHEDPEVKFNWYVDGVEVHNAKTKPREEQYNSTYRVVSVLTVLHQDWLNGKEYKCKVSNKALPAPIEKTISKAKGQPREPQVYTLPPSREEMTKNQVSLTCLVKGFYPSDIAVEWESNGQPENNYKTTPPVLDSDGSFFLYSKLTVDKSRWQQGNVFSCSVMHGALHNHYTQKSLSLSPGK
light: B11 light
notes: IgG1,kappa with E430G
B13: IgG1-005-H1L2-E430G (antibody)
heavy: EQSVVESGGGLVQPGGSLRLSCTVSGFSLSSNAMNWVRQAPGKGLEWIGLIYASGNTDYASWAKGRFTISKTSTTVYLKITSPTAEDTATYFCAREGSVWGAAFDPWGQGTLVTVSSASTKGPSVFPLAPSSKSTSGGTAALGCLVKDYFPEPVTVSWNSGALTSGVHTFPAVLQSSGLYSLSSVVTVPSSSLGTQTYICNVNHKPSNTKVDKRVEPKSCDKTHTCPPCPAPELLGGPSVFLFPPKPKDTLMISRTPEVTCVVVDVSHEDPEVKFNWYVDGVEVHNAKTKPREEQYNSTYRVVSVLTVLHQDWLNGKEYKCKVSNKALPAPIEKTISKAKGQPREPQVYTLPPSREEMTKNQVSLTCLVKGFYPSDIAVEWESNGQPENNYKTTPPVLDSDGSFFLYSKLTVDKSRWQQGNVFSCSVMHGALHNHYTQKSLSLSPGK
light: AYDMTQSPSSVSASVGDRVTITCQASQSISNWLAWYQQKPGKAPKQLIYAASTLASGVPSRFKGSGSGTDFTLTISSLQPEDFATYYCQQGYSNSNIDNTFGGGTKVEIKRTVAAPSVFIFPPSDEQLKSGTASVVCLLNNFYPREAKVQWKVDNALQSGNSQESVTEQDSKDSTYSLSSTLTLSKADYEKHKVYACEVTHQGLSSPVTKSFNRGEC
notes: IgG1,kappa with E430G
B14: IgG1-005-H1L2-K409R-E430G (antibody)
heavy: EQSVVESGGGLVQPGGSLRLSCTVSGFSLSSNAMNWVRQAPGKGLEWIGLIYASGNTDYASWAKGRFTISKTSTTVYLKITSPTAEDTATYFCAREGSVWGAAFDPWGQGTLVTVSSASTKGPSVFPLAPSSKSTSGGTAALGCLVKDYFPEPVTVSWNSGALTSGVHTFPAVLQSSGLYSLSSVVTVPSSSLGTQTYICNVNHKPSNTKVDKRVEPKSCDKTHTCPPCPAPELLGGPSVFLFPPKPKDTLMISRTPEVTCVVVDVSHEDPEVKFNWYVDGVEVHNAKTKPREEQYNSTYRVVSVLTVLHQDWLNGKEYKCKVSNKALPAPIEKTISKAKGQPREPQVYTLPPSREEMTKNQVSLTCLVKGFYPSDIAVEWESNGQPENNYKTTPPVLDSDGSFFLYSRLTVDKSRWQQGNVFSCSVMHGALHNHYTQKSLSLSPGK
light: B13 light
notes: IgG1,kappa with K409R and E430G
B15: IgG1-005-H1L2 (antibody)
heavy: not shown
light: B13 light
notes: Humanized, IgG1,kappa

The binders below were run against T1, human CD37 (human (Homo sapiens), UniProt P11049 1-281) (assay: flow cytometry on Daudi cells).
T1 construct: Endogenous on Daudi cells, Raji cells and human blood B cells; also called Leukocyte Antigen CD37; GP52-40
T1 sequence: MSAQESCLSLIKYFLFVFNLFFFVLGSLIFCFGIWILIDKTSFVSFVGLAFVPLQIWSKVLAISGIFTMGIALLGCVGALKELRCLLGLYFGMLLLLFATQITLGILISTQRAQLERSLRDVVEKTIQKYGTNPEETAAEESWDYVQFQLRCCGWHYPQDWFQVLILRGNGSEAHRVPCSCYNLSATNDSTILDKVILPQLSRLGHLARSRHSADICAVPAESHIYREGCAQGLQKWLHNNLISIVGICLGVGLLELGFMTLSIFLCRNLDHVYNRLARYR
Protocol: (§1) Binding to cell surface expressed CD37 (Daudi cells, CHO cells expressing cynomolgus CD37) was determined by flow cytometry. Cells, resuspended in RPMI containing 0.2% BSA, were seeded at 100,000 cells/well in polystyrene 96 well round-bottom plates (Greiner bio-one Cat #650101) and centrifuged for 3 minutes at 300×g, 4° C. Serial dilutions (0.003-10 μg/mL final antibody concentration in 3.33× serial dilutions) of CD37 or control antibodies were added and cells were incubated for 30 minutes at 4° C. Plates were washed/centrifuged twice using FACS buffer (PBS/0.1% BSA/0.01% Na-Azide). Next, cells were incubated for 30 minutes at 4° C. with R-Phycoerythrin (PE)-conjugated goat-anti-human IgG F(ab′)2 (Jackson ImmunoResearch Laboratories, Inc., West Grove, PA; cat #: 109-116-098) diluted 1/100 in PBS/0.1% BSA/0.01% Na-Azide. Cells were washed/centrifuged twice using FACS buffer, resuspended in 30 μL FACS buffer and analyzed by determining mean fluorescent intensities using an Intellicyt iQue™ screener (Westburg). Binding curves were generated using non-linear regression (sigmoidal dose-response with variable slope) analyses within GraphPad Prism V6.04 software (GraphPad Software, Sand Diego, CA, USA).
B1: binds. B2: binds. B3: binds. B4: binds. B5: binds. B6: binds. B7: binds. B8: binds. B9: binds. B10: binds. B11: binds. B12: binds. B13: binds. B14: binds. B15: binds.

Molecular target: T2, cynomolgus monkey CD37 (cynomolgus monkey (Macaca fascicularis), UniProt P11049 1-281 (human entry))
T2 construct: also called mfCD37; cynomolgus CD37
T2 chain: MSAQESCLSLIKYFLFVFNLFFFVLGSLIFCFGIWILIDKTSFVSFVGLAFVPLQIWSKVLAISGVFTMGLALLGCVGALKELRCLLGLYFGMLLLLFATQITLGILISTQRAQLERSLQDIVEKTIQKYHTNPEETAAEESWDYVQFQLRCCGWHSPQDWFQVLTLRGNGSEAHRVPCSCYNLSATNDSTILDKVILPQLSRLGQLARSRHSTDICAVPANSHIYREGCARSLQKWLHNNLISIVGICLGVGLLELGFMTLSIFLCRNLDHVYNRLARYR
Assay: flow cytometry on CHO cells expressing cynomolgus monkey CD37
Protocol: as §1
Binding to CHO cells expressing cynomolgus monkey CD37 was determined by flow cytometry using a method as described above.
B2: binds. B3: no binding (tested: 0.003-10 µg/mL). B4: no binding (tested: 0.003-10 µg/mL). B6: binds. B7: binds. B13: binds.

— US20240252635A1 (Genmab, published 2024)
